Patent US20250129136A1

Tests used:
hPBMC = experiment: flow cytometry, percent of stained hPBMC against the concentration of Alexa647-labeled hDsg3-hFc
[1] = target: AK23 antibody (anti-mouse Dsg3, from AK23 hybridoma); experiment: cell-based or functional assay
[2] = target: F779 patient-derived anti-Dsg3 antibody on Nalm-6 cells; experiment: cell-based or functional assay
[3] = target: PVB28 patient-derived anti-Dsg3 antibody on Nalm-6 cells; experiment: cell-based or functional assay
[4] = target: F779 patient-derived anti-Dsg3 antibody on Nalm-6 cells; experiment: flow cytometry on F779 cells, titration of Alexa647-labeled protein
[5] = target: Fcγ receptor of mouse macrophages (RAW264.7 cells) (mouse); experiment: flow cytometry on Raw macrophage cells, titration of labeled protein
[6] = target: Fcγ receptor of mouse macrophages (RAW264.7 cells) (mouse); experiment: flow cytometry dot plot of RAW264.7 macrophage cells, 10 nM mDsg3-IgG2a-Alexa647; the same quadrant at 0 nM prints 1.28
[7] = target: F779 patient-derived anti-Dsg3 antibody on Nalm-6 cells; experiment: flow cytometry, F779 cells incubated with varying concentrations of mDsg3-mFc (IgG2a), percent of stained F779 cells [top]

Molecule | EC50 (hPBMC) [nM] | killing of AK23 target cells co-cultured with RAW264.7 macrophages, 10 nM construct, 24 hours [1] [%] | killing of F779 target cells co-cultured with RAW264.7 macrophages, 10 nM construct, 24 hours [2] [%] | killing of F779 target cells co-cultured with RAW264.7 macrophages, 10 nM construct, 48 hours [2] [%] | killing of F779 target cells with RAW264.7 macrophages (Effector:Target 10:1), 1 nM construct, 24 hours [2] [%] | killing of F779 target cells with RAW264.7 macrophages (Effector:Target 10:1), 1 nM construct, 48 hours [2] [%] | killing of targeted cells with RAW264.7 macrophages at 10 and 100 nM construct [2] [%] | killing of targeted cells with RAW264.7 macrophages at 10 and 100 nM construct [3] [%] | EC50 [4] [nM] | EC50 [5] [nM] | number in the Alexa647-positive upper right quadrant at 10 nM (percent of cells) [6] [%] | EC50 [7] [nM]
hDsg3(EC13)-hFc (Fc fusion) | 1.7 |  |  |  |  |  |  |  |  |  |  | 
mDsg3(EC13)-mFc (Fc fusion, Alexa Fluor 647 installed site-specifically at the C-terminus by sortase (Gly3-Alexa647 on the LPETG motif) for the flow cytometry stainings) EWVKFAKPCREREDNSRRNPIAKITSDFQKNQKITYRISGVGIDQPPFGIFVVDPNNGDINITAIVDREETPSFLITCRALNALGQDVERPLILTVKILDVNDNPPIFSQTIFKGEIEENSASNSLVMILNATDADEPNHMNSKIAFKIVSQEPAGMSMFLISRNTGEVRTLTSSLDREQISSYHLVVSGADNDGTGLSTQCECSIKIKDVNDNFPVLRESQYSARIEENTLNAELLRFQVTDWDEEYTDNWLAVYFFTSGNEGNWFEIETDPRTNEGILKVVKALDYEQVQSMQFSIAVRNKAEFHQSVISQYRVQSTPVTIQVIDVREGISGGGGSGGSEPRGPTIKPCPPCKCPAPNLLGGPSVFIFPPKIKDVLMISLSPIVTCVVVDVSEDDPDVQISWFVNNVEVHTAQTQTHREDYNSTLRVVSALPIQHQDWMSGKEFKCKVNNKDLPAPIERTISKPKGSVRAPQVYVLPPPEEEMTKKQVTLTCMVTDFMPEDIYVEWTNNGKTELNYKNTEPVLDSDGSYFMYSKLRVEKKNWVERNSYSCSVVHEGLHNHHTTKSFSRTPGKGGGGSGGGGSDYKDDDDKLPETGGHHHHHH |  | 60 | 65 | 94 | 60 | 80 | 90 | 90 | 2.3 | 2.3 | 98.6 | 2.6
